Data as given in the supplement of paper PMC5998384.

Tests used:
HeLa Kyoto [1] = assay: solubility change mitosis vs G1/S (difference of NP-40 vs SDS log2 ratios) (log2 ratio difference); higher = more soluble in mitosis
HeLa Kyoto [2] = assay: solubility in G1/S (NP-40 vs SDS abundance) (log2 ratio); higher = more soluble; settings: cell cycle stage: G1/S
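For solubility change mitosis vs G1/S (difference of NP-40 vs SDS log2 ratios) in this document: synchronized HeLa Kyoto cells (double thymidine block for G1/S, nocodazole release for mitosis), protein amounts in NP-40 versus SDS lysates quantified by mass spectrometry, three biological replicates.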
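For solubility in G1/S (NP-40 vs SDS abundance) in this document: HeLa Kyoto cells arrested at G1/S by double thymidine block, proteins quantified by TMT10plex mass spectrometry in mild NP-40 versus SDS extracts, three biological replicates.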

WRN, sequence (chain, as listed by the source): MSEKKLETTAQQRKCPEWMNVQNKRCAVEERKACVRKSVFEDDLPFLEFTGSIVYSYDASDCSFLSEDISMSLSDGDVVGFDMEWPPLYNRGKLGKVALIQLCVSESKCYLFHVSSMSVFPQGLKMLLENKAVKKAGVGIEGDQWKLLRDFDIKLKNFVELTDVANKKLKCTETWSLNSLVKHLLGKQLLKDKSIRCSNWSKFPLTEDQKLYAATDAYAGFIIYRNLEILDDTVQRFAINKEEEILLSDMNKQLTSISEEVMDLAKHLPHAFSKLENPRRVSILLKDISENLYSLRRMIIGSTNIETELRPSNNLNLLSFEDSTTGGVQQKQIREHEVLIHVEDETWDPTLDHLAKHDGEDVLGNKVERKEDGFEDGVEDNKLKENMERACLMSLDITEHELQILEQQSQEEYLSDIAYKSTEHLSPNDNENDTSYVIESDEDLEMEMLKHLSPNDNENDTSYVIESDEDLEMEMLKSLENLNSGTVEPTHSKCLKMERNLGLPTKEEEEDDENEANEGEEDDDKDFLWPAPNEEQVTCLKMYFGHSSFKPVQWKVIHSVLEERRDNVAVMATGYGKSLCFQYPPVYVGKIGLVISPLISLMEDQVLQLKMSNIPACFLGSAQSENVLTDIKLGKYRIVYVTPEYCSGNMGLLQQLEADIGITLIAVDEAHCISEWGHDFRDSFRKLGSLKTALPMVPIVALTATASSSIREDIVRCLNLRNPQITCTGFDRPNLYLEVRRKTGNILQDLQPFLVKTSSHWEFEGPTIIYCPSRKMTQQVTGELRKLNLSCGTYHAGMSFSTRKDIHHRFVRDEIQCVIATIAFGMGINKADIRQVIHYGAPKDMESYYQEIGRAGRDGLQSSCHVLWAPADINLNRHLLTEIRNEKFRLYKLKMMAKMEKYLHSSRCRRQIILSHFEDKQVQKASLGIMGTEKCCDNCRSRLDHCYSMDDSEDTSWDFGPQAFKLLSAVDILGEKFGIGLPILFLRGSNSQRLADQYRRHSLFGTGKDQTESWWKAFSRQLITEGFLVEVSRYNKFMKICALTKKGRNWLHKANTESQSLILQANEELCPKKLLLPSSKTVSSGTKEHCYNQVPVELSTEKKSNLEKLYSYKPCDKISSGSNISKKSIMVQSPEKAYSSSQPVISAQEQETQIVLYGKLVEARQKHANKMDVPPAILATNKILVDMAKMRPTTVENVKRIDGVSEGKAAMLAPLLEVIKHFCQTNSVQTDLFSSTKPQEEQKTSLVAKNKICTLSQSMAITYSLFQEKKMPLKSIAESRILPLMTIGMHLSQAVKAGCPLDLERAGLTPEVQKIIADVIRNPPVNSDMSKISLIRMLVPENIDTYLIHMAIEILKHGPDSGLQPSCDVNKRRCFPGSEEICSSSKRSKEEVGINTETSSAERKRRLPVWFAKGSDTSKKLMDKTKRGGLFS

MERAVRVESGVLVGVVCLLLACPATATGPEVAQPEVDTTLGRVRGRQVGVKGTDRLVNVFLGIPFAQPPLGPDRFSAPHPAQPWEGVRDASTAPPMCLQDVESMNSSRFVLNGKQQIFSVSEDCLVLNVYSPAEVPAGSGRPVMVWVHGGALITGAATSYDGSALAAYGDVVVVTVQYRLGVLGFFSTGDEHAPGNQGFLDVVAALRWVQENIAPFGGDLNCVTVFGGSAGGSIISGLVLSPVAAGLFHRAITQSGVITTPGIIDSHPWPLAQKIANTLACSSSSPAEMVQCLQQKEGEELVLSKKLKNTIYPLTVDGTVFPKSPKELLKEKPFHSVPFLMGVNNHEFSWLIPRGWGLLDTMEQMSREDMLAISTPVLTSLDVPPEMMPTVIDEYLGSNSDAQAKCQAFQEFMGDVFINVPTVSFSRYLRDSGSPVFFYEFQHRPSSFAKIKPAWVKADHGAEGAFVFGGPFLMDESSRLAFPEATEEEKQLSLTMMAQWTHFARTGDPNSKALPPWPQFNQAEQYLEINPVPRAGQKFREAWMQFWSETLPSKIQQWHQKQKNRKAQEDL [CES3]
solubility change mitosis (log2) (HeLa Kyoto [1]): -0.166 | solubility in G1/S (log2) (HeLa Kyoto [2]): 0.261

MTDPFCVGGRRLPGSSKSGPGKDGSRKEVRLPMLHDPPKMGMPVVRGGQTVPGQAPLCFDPGSPASDKTEGKKKGRPKAENQALRDIPLSLMNDWKDEFKAHSRVKCPNSGCWLEFPSIYGLKYHYQRCQGGAISDRLAFPCPFCEAAFTSKTQLEKHRIWNHMDRPLPASKPGPISRPVTISRPVGVSKPIGVSKPVTIGKPVGVSKPIGISKPVSVGRPMPVTKAIPVTRPVPVTKPVTVSRPMPVTKAMPVTKPITVTKSVPVTKPVPVTKPITVTKLVTVTKPVPVTKPVTVSRPIVVSKPVTVSRPIAISRHTPPCKMVLLTRSENKAPRATGRNSGKKRAADSLDTCPIPPKQARPENGEYGPSSMGQSSAFQLSADTSSGSLSPGSRPSGGMEALKAAGPASPPEEDPERTKHRRKQKTPKKFTGEQPSISGTFGLKGLVKAEDKARVHRSKKQEGPGPEDARKKVPAAPITVSKEAPAPVAHPAPGGPEEQWQRAIHERGEAVCPTCNVVTRKTLVGLKKHMEVCQKLQDALKCQHCRKQFKSKAGLNYHTMAEHSAKPSDAEASEGGEQEERERLRKVLKQMGRLRCPQEGCGAAFSSLMGYQYHQRRCGKPPCEVDSPSFPCTHCGKTYRSKAGHDYHVRSEHTAPPPEEPTDKSPEAEDPLGVERTPSGRVRRTSAQVAVFHLQEIAEDELARDWTKRRMKDDLVPETARLNYTRPGLPTLNPQLLEAWKNEVKEKGHVNCPNDCCEAIYSSVSGLKAHLASCSKGAHLAGKYRCLLCPKEFSSESGVKYHILKTHAENWFRTSADPPPKHRSQDSLVPKKEKKKNLAGGKKRGRKPKERTPEEPVAKLPPRRDDWPPGCRDKGARGSTGRKVGVSKAPEK [ZNF512B]
solubility change mitosis (log2) (HeLa Kyoto [1]): 0.776 | solubility in G1/S (log2) (HeLa Kyoto [2]): -0.767

MAVTKELLQMDLYALLGIEEKAADKEVKKAYRQKALSCHPDKNPDNPRAAELFHQLSQALEVLTDAAARAAYDKVRKAKKQAAERTQKLDEKRKKVKLDLEARERQAQAQESEEEEESRSTRTLEQEIERLREEGSRQLEEQQRLIREQIRQERDQRLRGKAENTEGQGTPKLKLKWKCKKEDESKGGYSKDVLLRLLQKYGEVLNLVLSSKKPGTAVVEFATVKAAELAVQNEVGLVDNPLKISWLEGQPQDAVGRSHSGLSKGSVLSERDYESLVMMRMRQAAERQQLIARMQQEDQEGPPT [DNAJC17]
solubility change mitosis (log2) (HeLa Kyoto [1]): 0.205 | solubility in G1/S (log2) (HeLa Kyoto [2]): 0.702

MSRRTRCEDLDELHYQDTDSDVPEQRDSKCKVKWTHEEDEQLRALVRQFGQQDWKFLASHFPNRTDQQCQYRWLRVLNPDLVKGPWTKEEDQKVIELVKKYGTKQWTLIAKHLKGRLGKQCRERWHNHLNPEVKKSCWTEEEDRIICEAHKVLGNRWAEIAKMLPGRTDNAVKNHWNSTIKRKVDTGGFLSESKDCKPPVYLLLELEDKDGLQSAQPTEGQGSLLTNWPSVPPTIKEEENSEEELAAATTSKEQEPIGTDLDAVRTPEPLEEFPKREDQEGSPPETSLPYKWVVEAANLLIPAVGSSLSEALDLIESDPDAWCDLSKFDLPEEPSAEDSINNSLVQLQASHQQQVLPPRQPSALVPSVTEYRLDGHTISDLSRSSRGELIPISPSTEVGGSGIGTPPSVLKRQRKRRVALSPVTENSTSLSFLDSCNSLTPKSTPVKTLPFSPSQFLNFWNKQDTLELESPSLTSTPVCSQKVVVTTPLHRDKTPLHQKHAAFVTPDQKYSMDNTPHTPTPFKNALEKYGPLKPLPQTPHLEEDLKEVLRSEAGIELIIEDDIRPEKQKRKPGLRRSPIKKVRKSLALDIVDEDVKLMMSTLPKSLSLPTTAPSNSSSLTLSGIKEDNSLLNQGFLQAKPEKAAVAQKPRSHFTTPAPMSSAWKTVACGGTRDQLFMQEKARQLLGRLKPSHTSRTLILS [MYBL2]
solubility change mitosis (log2) (HeLa Kyoto [1]): -0.187 | solubility in G1/S (log2) (HeLa Kyoto [2]): 0.219

ARHGEF17
solubility change mitosis (log2) (HeLa Kyoto [1]): 0.166 | solubility in G1/S (log2) (HeLa Kyoto [2]): -0.434

NISCH
solubility change mitosis (log2) (HeLa Kyoto [1]): 0.0432 | solubility in G1/S (log2) (HeLa Kyoto [2]): -0.0187

CEP192
solubility change mitosis (log2) (HeLa Kyoto [1]): -0.137 | solubility in G1/S (log2) (HeLa Kyoto [2]): -0.295

CAPN15
solubility change mitosis (log2) (HeLa Kyoto [1]): -0.0119 | solubility in G1/S (log2) (HeLa Kyoto [2]): -0.427

MEAKTLGTVTPRKPVLSVSARKIKDNAADWHNLILKWETLNDAGFTTANNIANLKISLLNKDKIELDSSSPASKENEEKVCLEYNEELEKLCEELQATLDGLTKIQVKMEKLSSTTKGICELENYHYGEESKRPPLFHTWPTTHFYEVSHKLLEMYRKELLLKRTVAKELAHTGDPDLTLSYLSMWLHQPYVESDSRLHLESMLLETGHRAL [CINP]
solubility change mitosis (log2) (HeLa Kyoto [1]): 0.525 | solubility in G1/S (log2) (HeLa Kyoto [2]): 0.148

MDPRVAWIQPEQKGPANALWMQIWETSQGVGRGGSGFASYFCLNSPALDTAAAAGAAGRGSGGLGPALPAASPPPPGPTAPAALPPALLTALGPAAEGARRLHKSPSLSSSSSSSSSNAESGTESPGCSSSSSSSASLGRPGGGRGGAFFNFADGAPSAPGTANGHPGPRGPAPAGSPSQHQFHPGRRKRENKASTYGLNYLLSGSRAAALSGGGGPGAQAPRPGTPWKSRAYSPGIQGLHEEIIDFYNFMSPCPEEAAMRREVVKRIETVVKDLWPTADVQIFGSFSTGLYLPTSDIDLVVFGKWERPPLQLLEQALRKHNVAEPCSIKVLDKATVPIIKLTDQETEVKVDISFNMETGVRAAEFIKNYMKKYSLLPYLILVLKQFLLQRDLNEVFTGGISSYSLILMAISFLQLHPRIDARRADENLGMLLVEFFELYGRNFNYLKTGIRIKEGGAYIAKEEIMKAMTSGYRPSMLCIEDPLLPGNDVGRSSYGAMQVKQVFDYAYIVLSHAVSPLARSYPNRDAESTLGRIIKVTQEVIDYRRWIKEKWGSKAHPSPGMDSRIKIKERIATCNGEQTQNREPESPYGQRLTLSLSSPQLLSSGSSASSVSSLSGSDVDSDTPPCTTPSVYQFSLQAPAPLMAGLPTALPMPSGKPQPTTSRTLIMTTNNQTRFTIPPPTLGVAPVPCRQAGVEGTASLKAVHHMSSPAIPSASPNPLSSPHLYHKQHNGMKLSMKGSHGHTQGGGYSSVGSGGVRPPVGNRGHHQYNRTGWRRKKHTHTRDSLPVSLSR [PAPD7]
solubility change mitosis (log2) (HeLa Kyoto [1]): 0.0856 | solubility in G1/S (log2) (HeLa Kyoto [2]): -0.21

WRN
solubility change mitosis (log2) (HeLa Kyoto [1]): 0.124 | solubility in G1/S (log2) (HeLa Kyoto [2]): -0.339

WWP1
solubility change mitosis (log2) (HeLa Kyoto [1]): 0.0121 | solubility in G1/S (log2) (HeLa Kyoto [2]): -0.159

MKKSYSGGTRTSSGRLRRLGDSSGPALKRSFEVEEVETPNSTPPRRVQTPLLRATVASSTQKFQDLGVKNSEPSARHVDSLSQRSPKASLRRVELSGPKAAEPVSRRTELSIDISSKQVENAGAIGPSRFGLKRAEVLGHKTPEPAPRRTEITIVKPQESAHRRMEPPASKVPEVPTAPATDAAPKRVEIQMPKPAEAPTAPSPAQTLENSEPAPVSQLQSRLEPKPQPPVAEATPRSQEATEAAPSCVGDMADTPRDAGLKQAPASRNEKAPVDFGYVGIDSILEQMRRKAMKQGFEFNIMVVGQSGLGKSTLINTLFKSKISRKSVQPTSEERIPKTIEIKSITHDIEEKGVRMKLTVIDTPGFGDHINNENCWQPIMKFINDQYEKYLQEEVNINRKKRIPDTRVHCCLYFIPATGHSLRPLDIEFMKRLSKVVNIVPVIAKADTLTLEERVHFKQRITADLLSNGIDVYPQKEFDEDSEDRLVNEKFREMIPFAVVGSDHEYQVNGKRILGRKTKWGTIEVENTTHCEFAYLRDLLIRTHMQNIKDITSSIHFEAYRVKRLNEGSSAMANGMEEKEPEAPEM [SEPT9]
solubility change mitosis (log2) (HeLa Kyoto [1]): -0.0335 | solubility in G1/S (log2) (HeLa Kyoto [2]): 0.198

MASESSPLLAYRLLGEEGVALPANGAGGPGGASARKLSTFLGVVVPTVLSMFSIVVFLRIGFVVGHAGLLQALAMLLVAYFILALTVLSVCAIATNGAVQGGGAYFMISRTLGPEVGGSIGLMFYLANVCGCAVSLLGLVESVLDVFGADATGPSGLRVLPQGYGWNLLYGSLLLGLVGGVCTLGAGLYARASFLTFLLVSGSLASVLISFVAVGPRDIRLTPRPGPNGSSLPPRFGHFTGFNSSTLKDNLGAGYAEDYTTGAVMNFASVFAVLFNGCTGIMAGANMSGELKDPSRAIPLGTIVAVAYTFFVYVLLFFLSSFTCDRTLLQEDYGFFRAISLWPPLVLIGIYATALSASMSSLIGASRILHALARDDLFGVILAPAKVVSRGGNPWAAVLYSWGLVQLVLLAGKLNTLAAVVTVFYLVAYAAVDLSCLSLEWASAPNFRPTFSLFSWHTCLLGVASCLLMMFLISPGAAGGSLLLMGLLAALLTARGGPSSWGYVSQALLFHQVRKYLLRLDVRKDHVKFWRPQLLLLVGNPRGALPLLRLANQLKKGGLYVLGHVTLGDLDSLPSDPVQPQYGAWLSLVDRAQVKAFVDLTLSPSVRQGAQHLLRISGLGGMKPNTLVLGFYDDAPPQDHFLTDPAFSEPADSTREGSSPALSTLFPPPRAPGSPRALNPQDYVATVADALKMNKNVVLARASGALPPERLSRGSGGTSQLHHVDVWPLNLLRPRGGPGYVDVCGLFLLQMATILGMVPAWHSARLRIFLCLGPREAPGAAEGRLRALLSQLRIRAEVQEVVWGEGAGAGEPEAEEEGDFVNSGRGDAEAEALARSANALVRAQQGRGTGGGPGGPEGGDAEGPITALTFLYLPRPPADPARYPRYLALLETLTRDLGPTLLVHGVTPVTCTDL [SLC12A9]
solubility change mitosis (log2) (HeLa Kyoto [1]): 0.119 | solubility in G1/S (log2) (HeLa Kyoto [2]): -0.0513

KIAA0368
solubility change mitosis (log2) (HeLa Kyoto [1]): -0.156 | solubility in G1/S (log2) (HeLa Kyoto [2]): 0.0203

MENLMTSSTLPPLFADEDGSKESNDLATTGLNHPEVPYSSGATSSTNNPEFVEDLSQGQLLQSESSNAAEGNEQRHEDEQRSKRGGWSKGRKRKKPLRDSNAPKSPLTGYVRFMNERREQLRAKRPEVPFPEITRMLGNEWSKLPPEEKQRYLDEADRDKERYMKELEQYQKTEAYKVFSRKTQDRQKGKSHRQDAARQATHDHEKETEVKERSVFDIPIFTEEFLNHSKAREAELRQLRKSNMEFEERNAALQKHVESMRTAVEKLEVDVIQERSRNTVLQQHLETLRQVLTSSFASMPLPGSGETPTVDTIDSYMNRLHSIILANPQDNENFIATVREVVNRLDR [HMG20A]
solubility change mitosis (log2) (HeLa Kyoto [1]): 0.298 | solubility in G1/S (log2) (HeLa Kyoto [2]): -0.0378
